According to the supplement of paper PMC12764529:
± gives the half width of the 95% confidence interval.

What was measured:
[1] = folding stability dG unfold (combined trypsin and chymotrypsin); higher = more stable
In short: (§1)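 Unfolding free energy was derived, per protease or combined, against a sequence-predicted unfolded-state K50 and a shared folded-state K50, starting from K50 inferred by Bayesian fitting of sequencing counts. Digestion with trypsin and chymotrypsin was carried out on designed mini-proteins under 80 residues without cysteine in a PA-tagged cDNA display construct. Only designs with AlphaFold2 dimer inter-PAE above 15 were kept.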

[2] = folding stability dG unfold from trypsin proteolysis; higher = more stable
In short: as §1

[3] = folding stability dG unfold from chymotrypsin proteolysis; higher = more stable
In short: as §1

SAGRITIDPEDWRIEVKPPNGKKREISPDKIQELLREQKQKGKPPTAEEIAEKIMDEFPGYEVEIHPRSAGG [r19_46_TrROS]
folding stability dG unfold [1]: 1.06 ± 0.3 kcal/mol
folding stability dG unfold [2]: 0.894 ± 0.1 kcal/mol
folding stability dG unfold [3]: 1.22 ± 0.073 kcal/mol

SAGRVRLEIVIMIPIDPEQLENLPPSIRDPNGMEIYENGDMIMIKMPIPIPPPPVPDPDGKKMTPEELSAGG [r19_148_TrROS]
folding stability dG unfold [1]: 0.982 ± 0.24 kcal/mol
folding stability dG unfold [2]: 1.44 ± 0.052 kcal/mol
folding stability dG unfold [3]: 0.493 ± 0.11 kcal/mol

SAGSAYRIEVYNPETGKKVEIFVFPNGEALVKEEDGFSKIYIDPSKPEQVEAIAKEIEPLGVEVKISPWSAG [r5_791_TrMRF]
folding stability dG unfold [1]: 1.35 ± 0.34 kcal/mol
folding stability dG unfold [2]: 1.4 ± 0.1 kcal/mol
folding stability dG unfold [3]: 1.29 ± 0.29 kcal/mol

SAGSFKVTLELVLPNGEKLTVENPEDVLAAIKALPSNVTVRVSTPGESETISITGSDGSVFALKIERFKSAG [r5_506_TrMRF]
folding stability dG unfold [1]: 1.85 ± 0.1 kcal/mol
folding stability dG unfold [2]: 1.68 ± 0.045 kcal/mol
folding stability dG unfold [3]: 1.97 ± 0.089 kcal/mol

SAGSIPLDIAKSLGGKTEVSSSPVPLGGGMTATLTTVTATLPDKIVTITITTLADPTVTEVTITTEPIKSAG [r5_323_JUSTAS]
folding stability dG unfold [1]: 1.14 ± 0.13 kcal/mol
folding stability dG unfold [2]: 1.04 ± 0.068 kcal/mol
folding stability dG unfold [3]: 1.23 ± 0.039 kcal/mol

SAGSITIDGLTPDKEQEVKITVTLPLPGGGTVTLELTAKVTYDPATGLAKMPITLPDGTVLPLTLPLPESAG [r5_743_JUSTAS]
folding stability dG unfold [1]: 2.1 ± 0.093 kcal/mol
folding stability dG unfold [2]: 2.21 ± 0.12 kcal/mol
folding stability dG unfold [3]: 1.93 ± 0.074 kcal/mol

SAGSKKYIPKEVTVYVLGTAPPDMSLEEALKNPNFAVSVPLKATVIYDPETKTARVLLPDGTVVEFPVPSAG [r5_701_TrMRF]
folding stability dG unfold [1]: 1.52 ± 0.1 kcal/mol
folding stability dG unfold [2]: 1.5 ± 0.049 kcal/mol
folding stability dG unfold [3]: 1.44 ± 0.11 kcal/mol

SAGSKVIMIPWEDAEKLIEDLPPGKNVTIHWMWPKGPYWTHTIEVKGDKIKIEPLPPNQFPGWRIMITKSAG [r5_85_TrROS]
folding stability dG unfold [1]: 1.65 ± 0.22 kcal/mol
folding stability dG unfold [2]: 1.86 ± 0.13 kcal/mol
folding stability dG unfold [3]: 1.45 ± 0.17 kcal/mol

SAGSMEELIANGGTISEERTLPGGEKVFTTTTLTYAPDGTPVINTETTVTTTPPDGTTTPSTSTSTVPLSAG [r5_24_JUSTAS]
folding stability dG unfold [1]: 1.04 ± 0.035 kcal/mol
folding stability dG unfold [2]: 1.04 ± 0.038 kcal/mol
folding stability dG unfold [3]: 0.957 ± 0.058 kcal/mol

SAGSMELLEKKEGKLPDGRVYTTETLRNPANGLYEVKTFVFEPGGNPLAEERITYEGDKLVSSETIYLGSAG [r14_828_JUSTAS]
folding stability dG unfold [1]: 0.594 ± 0.077 kcal/mol
folding stability dG unfold [2]: 0.199 ± 0.04 kcal/mol
folding stability dG unfold [3]: 0.842 ± 0.075 kcal/mol

SAGSMRITVEITFTSPEGVVKTKTVEVDLSSGSIDLSPEVIEAAKKELGLPPNVTVTLTVVEERPELESAGG [r19_287_JUSTAS]
folding stability dG unfold [1]: 3.69 ± 0.11 kcal/mol
folding stability dG unfold [2]: 4.06 ± 0.22 kcal/mol
folding stability dG unfold [3]: 3.37 ± 0.11 kcal/mol

SAGSMTLESEDPSSGLRVTVTVEREPFLLPDGTRVLRRTVTTTVTTPDGEVLESEDVEVVAVLPPDAPLSAG [r5_871_JUSTAS]
folding stability dG unfold [1]: 2.46 ± 0.077 kcal/mol
folding stability dG unfold [2]: 2.4 ± 0.085 kcal/mol
folding stability dG unfold [3]: 2.43 ± 0.04 kcal/mol

SAGSMTPEEIRERIEALAEEVGEPPVRVLLKGPSGPLYELDVRFTPEHLEEARRALGVDVVEVEPVPESAGG [r19_50_JUSTAS]
folding stability dG unfold [1]: -0.00549 ± 0.17 kcal/mol
folding stability dG unfold [2]: 0.297 ± 0.068 kcal/mol
folding stability dG unfold [3]: -0.512 ± 0.32 kcal/mol

SAGSMVEERVRELLRELDPERPWEIERLPDGTIVARDPETGRWYIFKVEPDGTVTLERVLSLEEYERLSSAG [r5_852_JUSTAS]
folding stability dG unfold [1]: 4.42 ± 0.11 kcal/mol
folding stability dG unfold [2]: 3.37 ± 0.075 kcal/mol
folding stability dG unfold [3]: 4.78 ± 0.076 kcal/mol

SAGSNKPIKLKAIIEKPKEKKEIEIEIDPNESIESALKKILEKLEPEWKIVIELPNGIKIEFPPSKEMYSAG [r5_77_TrMRF]
folding stability dG unfold [1]: 0.91 ± 0.15 kcal/mol
folding stability dG unfold [2]: 1.37 ± 0.083 kcal/mol
folding stability dG unfold [3]: 0.0227 ± 0.18 kcal/mol
